Molecular target: Nluc::NPR-11::eYFP in membranes of transfected HEK293 cells (C. elegans) (UniProt Q18179)
Sequence (Q18179 whole entry): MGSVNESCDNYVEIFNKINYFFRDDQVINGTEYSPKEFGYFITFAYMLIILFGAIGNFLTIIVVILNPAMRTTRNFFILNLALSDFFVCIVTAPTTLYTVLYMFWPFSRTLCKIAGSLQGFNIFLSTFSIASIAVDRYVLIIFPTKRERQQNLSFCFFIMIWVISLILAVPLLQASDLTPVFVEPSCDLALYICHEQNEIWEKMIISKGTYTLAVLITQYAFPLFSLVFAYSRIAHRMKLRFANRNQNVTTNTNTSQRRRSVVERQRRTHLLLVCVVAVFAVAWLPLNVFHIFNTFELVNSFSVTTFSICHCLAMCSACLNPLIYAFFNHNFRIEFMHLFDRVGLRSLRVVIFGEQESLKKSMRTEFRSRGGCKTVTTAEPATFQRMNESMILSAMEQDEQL

- cAMP reporter gene assay, forskolin-stimulated HEK293 cells transfected with NPR-11::eYFP (no Nluc): EC50 of NPR-11 activation: 2.3 nM
Substance: FLP-34-1 (unlabeled) (peptide)
